Experimental data published in the supplement of paper PMC9170038.

System: MS2 coat protein
Test: apparent KD of MS2 coat protein; designed switch direction (-1 OFF switch, 1 ON switch): 1; higher = weaker reporter binding
Summary of the method: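 The reported apparent KD is a per-design median over clusters, from curve fits of normalised cluster fluorescence. Protein titrations used SNAP-549-labelled MS2 coat protein, doubled from 0.7 or 1.5 nM to 3 µM, in Tris-HCl pH 7.5 buffer with KCl, MgCl2, BSA, DTT, tRNA and Tween-20, with no input, 200 uM small-molecule ligand, or an oligonucleotide input. The RNA switches were transcribed on Illumina chips by stalled E. coli RNA polymerase.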

[1] = input ligand: microRNA oligo, concentration not stated
[2] = Eterna round: R95, input ligand: FMN 200 uM
[3] = Eterna round: R95, input ligand: microRNA oligo, concentration not stated
[4] = Eterna round: R95, input ligand: none

Row | Sequence | apparent KD of MS2 coat protein (input ligand: FMN 200 uM) [nM] | apparent KD of MS2 coat protein [1] [nM] | apparent KD of MS2 coat protein (input ligand: none) [nM] | apparent KD of MS2 coat protein [2] [nM] | apparent KD of MS2 coat protein [3] [nM] | apparent KD of MS2 coat protein [4] [nM]
1 | GUGGAGGGUUGAGGAUAUUGGUUGCAUAUGUUUAACAUGAGGAUCACCCAUGUGGGUUGCGGUUUCGAGAAGGUAGGUUGCUGG [salish99_SSNG2_r04_043] (Eterna round: R96, puzzle: Same State NG 2) | 90.8 | 82.2 | 75.2 |  |  | 
2 | GCGGAACAGGCCGACAUGAGGAUCACCCAUGUGGCCUCAUGUCAGGAUAUCGGGAAGAAGAAAACCGAGAAGGGACGGUGACGC [AK SSNG3-V2-33.2] (Eterna round: R96, puzzle: Same State NG 3) | 23.4 | 9.43 | 10.1 |  |  | 
3 | UGGUAACAUGAGGAUCACCCAUGUCAAAUGAAUCGAGGAUAUGGGAACUAACAACACAAACUAGAAGGCGAACUUG [Altered State 1-9 - Jieux - Same State 1] (puzzle: Same State 1) |  |  |  | 32.6 | 39.6 | 91.5
4 | GAGGGCGAAAGCGACAUGAGGAUCACCCAUGUCCUCGGAGGGCAGGAUAUCCGGCAAAAGCCGAAGGAGAAGGGUCGAAAAGAA [AK SSNG3-V2-38.1] (Eterna round: R96, puzzle: Same State NG 3) | 66.4 | 26 | 41.1 |  |  | 
5 | AUUAAACAUGAGGAUCACCCAUGUCAUCAAAGUCGAGGAUAUGGGCAAAUAAAAUAAGAACCAGAAGGCGAAUAAU [salish99_ss1_r3_073] (puzzle: Same State 1) |  |  |  | 69.6 | 122 | 269
6 | AGCGAGAUAGGCAAGGAUAUGUAGUUUGGCACAUGAGGAUCACCCAUGUCAAUCCAUUUUUUGGAACAGAAGGUGCAUUCUCUUU [ak fourth] (puzzle: Same State 2) |  |  |  | 33.4 | 12.2 | 19.5
7 | GUAGCAUACCGAGGAUAUUCAUAUAAUAAAUACAUGAGGAUCACCCAUGUAAGGCGAAAGCCUUGGGAGAAGGCGGAAUGCUAC [Xeonanis - 20 Mod59] (Eterna round: R96, puzzle: Same State NG 2) | 12.6 | 31.9 | 36.3 |  |  | 
8 | GUUACAUGAGGAUCACCCAUGUAUGUGUGGGAGUAAGUGUCUUAGGAUAUCUAUUAUUAAAAUUAAGAGAAGGAAGAUUGUUGU [JMF's solution 18] (Eterna round: R96, puzzle: Same State NG 3) | 115 | 98.1 | 103 |  |  | 
9 | UUUGCAUUGCAAGGAUAUUGAUAACAUGAGGAUCACCCAUGUAUAGGUUCAGGAUUUACGAGUAACAAGAAGGUGCUAUUGUUU [JR_SSNG2_Sub040] (Eterna round: R96, puzzle: Same State NG 2) | 27.6 | 20.7 | 31.8 |  |  | 
10 | UUUACUUUCAUAGGAUAUCAUGCGAAAAUUGCGUGAGAAGGGUGCACACUGUCUUUCUAGGAGUACAUGAGGAUCACCCAUGUG [SameState NG1 #66] (Eterna round: R96, puzzle: Same State NG 1) | 52.4 | 48.3 | 50.9 |  |  | 
11 | GACAAUCUAUCUGAGGAUAUCAUGAGAAUAACAUGAGGAUCACCCAUGUGCAGGAAAACUGCAUAUGAGAAGGCAGAUAGAUUGA [Mat - Same State 2 - Mod - D15] (puzzle: Same State 2) |  |  |  | 48.2 | 567 | 603
12 | GGAAUGUGAUGUUACAUGAGGAUCACCCAUGUAGUGACAACUAAGGAUAUCUGAAAGGAAGGAGAGGAGAAGGUAGGAUCACAA [AK SSNG3-V2-16] (Eterna round: R96, puzzle: Same State NG 3) | 15.2 | 24.1 | 40.8 |  |  | 
13 | GGAAUAUGAUGUUACAUGAGGAUCACCCAUGUAGUGAUAACUAAGGAUAUUUGAAAGGGAGGAGAAGAGAAGGUAGGAUCAUAA [AK SSNG3-V2-11.1] (Eterna round: R96, puzzle: Same State NG 3) | 60.7 | 47.6 | 63.7 |  |  | 
14 | GGAGCCGGCCUAGGAUAUUUCAUAAACAAACAUGAGGAUCACCCAUGUAGGCCAGAAGGCCUUGGGAAGAAGGAGGUCGGCUCC [Loop Effect - C27] (Eterna round: R96, puzzle: Same State NG 2) | 22.1 | 32.2 | 45.2 |  |  | 
15 | GCCGCAAGGGCAGGAUAUGGGUCCAGAGUGCAAAUACACUCUGGUACAUGAGGAUCACCCAUGUCCCAGAAGGGCCCAAGCGGC [Teerledion] (Eterna round: R96, puzzle: Same State NG 2) | 13.9 | 71 | 127 |  |  | 
